Source: patent publication US6869925 (Amgen, dated 2005)
pKd: −log10 of the molar value.

How the values were obtained:
[1] = molecular target: SLPI binding sites on U937 cells (human monocyte cell line; intact cells, PMA-induced cells or plasma membranes) (human); assay: Scatchard plot of 125I-SLPI saturation binding, non-induced U937 cells
[2] = molecular target: SLPI binding sites on HuT78 cells (human T cell line) (human); assay: competition with 125I-SLPI, intact HuT78 cells, competitor at 2.6 nM
[3] = molecular target: SLPI binding sites on U937 cells (human monocyte cell line; intact cells, PMA-induced cells or plasma membranes) (human); assay: competition with 125I-SLPI, intact U937 cells, competitor at 26 nM
[4] = molecular target: SLPI binding sites on U937 cells (human monocyte cell line; intact cells, PMA-induced cells or plasma membranes) (human); assay: competition with 125I-SLPI, intact U937 cells, cold SLPI at 0.80 nM
[5] = molecular target: SLPI binding sites on HuT78 cells (human T cell line) (human); assay: competition with 125I-SLPI, intact HuT78 cells, cold SLPI at 0.00 nM
[6] = molecular target: SLPI binding sites on U937 cells (human monocyte cell line; intact cells, PMA-induced cells or plasma membranes) (human); assay: competition with 125I-SLPI, intact U937 cells, cold SLPI at 8.2 nM
[7] = molecular target: SLPI binding sites on HuT78 cells (human T cell line) (human); assay: 125I-SLPI saturation binding, intact HuT78 cells, *SLPI at 10,240 pM
[8] = molecular target: SLPI binding sites on U937 cells (human monocyte cell line; intact cells, PMA-induced cells or plasma membranes) (human); assay: 125I-SLPI saturation binding, intact U937 cells, *SLPI at 320 pM
[9] = molecular target: SLPI binding sites on HuT78 cells (human T cell line) (human); assay: 125I-SLPI saturation binding, intact HuT78 cells, *SLPI at 40 pM
[10] = molecular target: SLPI binding sites on U937 cells (human monocyte cell line; intact cells, PMA-induced cells or plasma membranes) (human); assay: competition with 125I-SLPI, intact U937 cells, cold SLPI at 2750 nM
[11] = molecular target: SLPI binding sites on HuT78 cells (human T cell line) (human); assay: Scatchard plot of 125I-SLPI saturation binding, intact HuT78 cells
[12] = molecular target: SLPI binding sites on U937 cells (human monocyte cell line; intact cells, PMA-induced cells or plasma membranes) (human); assay: 125I-SLPI saturation binding, U937 cells plus PMA, *SLPI at 640 pM
[13] = molecular target: SLPI binding sites on U937 cells (human monocyte cell line; intact cells, PMA-induced cells or plasma membranes) (human); assay: competition with 125I-SLPI, U937 plasma membranes, competitor at 0.800 nM
[14] = molecular target: SLPI binding sites on U937 cells (human monocyte cell line; intact cells, PMA-induced cells or plasma membranes) (human); assay: 125I-SLPI saturation binding, U937 cells plus PMA, *SLPI at 2,560 pM
[15] = molecular target: SLPI binding sites on U937 cells (human monocyte cell line; intact cells, PMA-induced cells or plasma membranes) (human); assay: 125I-SLPI saturation binding, U937 cells minus PMA, *SLPI at 80 pM
[16] = molecular target: SLPI binding sites on U937 cells (human monocyte cell line; intact cells, PMA-induced cells or plasma membranes) (human); assay: competition with 125I-SLPI, U937 plasma membranes, competitor at 2.56 nM
[17] = molecular target: SLPI binding sites on U937 cells (human monocyte cell line; intact cells, PMA-induced cells or plasma membranes) (human); assay: competition with 125I-SLPI, intact U937 cells, cold SLPI at 0.25 nM
[18] = molecular target: SLPI binding sites on U937 cells (human monocyte cell line; intact cells, PMA-induced cells or plasma membranes) (human); assay: competition with 125I-SLPI, intact U937 cells, cold SLPI at 2.6 nM
[19] = molecular target: SLPI binding sites on HuT78 cells (human T cell line) (human); assay: competition with 125I-SLPI, intact HuT78 cells, Kd by Cheng-Prusoff
[20] = molecular target: SLPI binding sites on U937 cells (human monocyte cell line; intact cells, PMA-induced cells or plasma membranes) (human); assay: 125I-SLPI saturation binding, U937 cells minus PMA, *SLPI at 10,240 pM
[21] = molecular target: SLPI binding sites on HuT78 cells (human T cell line) (human); assay: 125I-SLPI saturation binding, intact HuT78 cells, *SLPI at 2560 pM
[22] = molecular target: SLPI binding sites on HuT78 cells (human T cell line) (human); assay: competition with 125I-SLPI, intact HuT78 cells, competitor at 2750 nM
[23] = molecular target: SLPI binding sites on elutriated human peripheral blood monocytes (human); assay: 125I-SLPI binding to intact monocytes
[24] = molecular target: SLPI binding sites on U937 cells (human monocyte cell line; intact cells, PMA-induced cells or plasma membranes) (human); assay: competition with 125I-SLPI, U937 plasma membranes, competitor at 2750 nM
[25] = molecular target: SLPI binding sites on U937 cells (human monocyte cell line; intact cells, PMA-induced cells or plasma membranes) (human); assay: 125I-SLPI saturation binding, U937 cells minus PMA, *SLPI at 640 pM
[26] = molecular target: SLPI binding sites on U937 cells (human monocyte cell line; intact cells, PMA-induced cells or plasma membranes) (human); assay: competition with 125I-SLPI, U937 plasma membranes, competitor at 0 nM

Chain of serine leukocyte protease inhibitor (SLPI) (P03973 26-132): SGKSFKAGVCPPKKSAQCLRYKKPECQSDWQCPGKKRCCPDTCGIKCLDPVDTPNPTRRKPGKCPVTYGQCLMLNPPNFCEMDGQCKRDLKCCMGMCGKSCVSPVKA

pKd [1]: 8.96
% *SLPI BOUND [2]: 76%
% *SLPI BOUND [3]: 11%
% *SLPI BOUND [4]: 77%
% *SLPI BOUND [5]: 100%
% *SLPI BOUND [6]: 24%
bound pM [7]: 32.7 pM
bound per free [7]: 0.0032
sites bound per cell (sites per cell) [7]: 1970
specific cpm [7]: 1300 cpm
bound *SLPI (pM) [8]: 65.7 pM
bound per free [8]: 0.258
sites bound per cell (sites per cell) [8]: 3960
specific cpm [8]: 2620 cpm
specific cpm [9]: 0 cpm
% *SLPI BOUND [10]: 0.5%
pKd [11]: 8.70
bound pM [12]: 103 pM
bound per free [12]: 0.192
sites bound per cell (sites per cell) [12]: 6200
specific cpm [12]: 1100 cpm
CPM *SLPI BOUND [13]: 14800 cpm
bound pM [14]: 215 pM
bound per free [14]: 0.092
sites bound per cell (sites per cell) [14]: 12900
specific cpm [14]: 2300 cpm
bound *SLPI (pM) [15]: 37 pM
bound per free [15]: 0.86
sites bound per cell (sites per cell) [15]: 2230
specific cpm [15]: 400 cpm
CPM *SLPI BOUND [16]: 11000 cpm
% *SLPI BOUND [17]: 92%
% *SLPI BOUND [18]: 55%
pKd [19]: 8.70
bound *SLPI (pM) [20]: 844 pM
bound per free [20]: 0.09
sites bound per cell (sites per cell) [20]: 50800
specific cpm [20]: 9020 cpm
bound pM [21]: 9.98 pM
bound per free [21]: 0.0039
sites bound per cell (sites per cell) [21]: 501
specific cpm [21]: 398 cpm
% *SLPI BOUND [22]: 0%
*SLPI concentration at saturation (micrograms/ml) [23]: 0.5
*SLPI concentration required for half-maximal binding [23]: 10 nM
CPM *SLPI BOUND [24]: 1680 cpm
bound *SLPI (pM) [25]: 207 pM
bound per free [25]: 0.478
sites bound per cell (sites per cell) [25]: 12500
specific cpm [25]: 2210 cpm
CPM *SLPI BOUND [26]: 18700 cpm
Substance: serine leukocyte protease inhibitor (SLPI) (from UniProt P03973 26-132)
